We go through three compounds from US20170128596A1, “Peptide-Based Compounds and Their Uses for Tumor Imaging and Targeting” (Klinikum rechts der lsar der Technischen Universitaet …, priority 2014, published 2017).

The nature of data set [1]: Toxicity testing in healthy and tumor-bearing BALB/c mice.
Method: Concentrations up to 500 μg of TPP per mouse were tested in tumor-bearing mice (s.c. tumors, size 0.4 cm^3). The health status and the general behavior of mice were inspected. Animals were sacrificed on day 5 and the heart, liver, spleen, lung and kidneys examined for pathological changes using standard histological techniques.
Data set [2] in a line: Ex vivo biodistribution in CT26 tumor-bearing mice by NIRF quantification. Details: species or system mouse. The conditions noted are these: i.v. As for the experimental part:
Regression equation of linear regression analysis (lower panel). The concentration of TPP[Cy5.5] in organs was calculated using this regression equation. Scale bar, 5 mm.
For biodistribution tumor-bearing mice were sacrificed 12, 24 or 48 h after i.v. injection of TPP[Cy5.5]. Fluorescent signal intensities of 0.25 cm^3 tissue cubes, taken from the tumor, spleen, pancreas, liver, lung, duodenum, kidney, heart, and 0.25 ml of peripheral blood were measured as described above. Agarose-gel cubes with standardized concentrations were used to calculate the probe concentrations in the investigated tissue samples.
After the mice had been sacrificed, the contents of TPP[Cy5.5] in the tumors and organs (spleen, pancreas, liver, lung, duodenum, kidney, heart and blood) were assessed. […] Fluorescence intensities of the tissues were measured as described in the imaging procedures chapter. Quantification of the Cy5.5 contents in the defined tissue volumes was calculated using fluorescence signal intensities of standards with defined concentrations. […] Fluorescence signal intensity was measured using the same instrument settings than for the tissue specimen (FIG. 10, upper panel). […] Linear regression equation of the standards was calculated with Microsoft Excel 2007 (FIG. 10, lower panel). The concentration of TPP[Cy5.5] in organs was calculated using the regression equation.

Data set [3] deals with MCF7, MDA-MB-231, T47D cells. As to the kind of experiment: Peptide uptake into human breast cancer cell lines by confocal microscopy. Format: cell-based. The settings on record: 30 min at 37° C. As for the experimental part: Human breast cancer cell lines (MCF7, MDA-MB-231, T47D) expressing different levels of membrane Hsp70 were incubated with CF-TPP or a scrambled peptide for 30 min at 37° C. and internalization of the peptides was imaged by confocal microscopy.

The target in data set [4] is membrane-bound Heat shock protein 70 (Hsp70) on human tumor cells (human) (UniProt P0DMV8). Kind of data set: flow cytometry, single cell suspension of in vivo-grown Cal-33 human head & neck tumor. (In general: In flow cytometry, cells or beads pass a laser one at a time.)
The target in data set [5] is membrane-bound Heat shock protein 70 (Hsp70) on murine tumor cells (mouse) (UniProt Q61696). As to the kind of experiment: flow cytometry, single cell suspension of PDAC murine pancreas tumor.
Data set [6] deals with membrane-bound Heat shock protein 70 (Hsp70) on human tumor cells (human) (UniProt P0DMV8). As to the kind of experiment: flow cytometry, single cell suspension of in vivo-grown A549 human lung tumor.
Data set [7] addresses membrane-bound Heat shock protein 70 (Hsp70) on murine tumor cells (mouse) (UniProt Q61696). As to the kind of experiment: flow cytometry, single cell suspension of in vivo-grown CT26 murine colon tumor.
Data set [8] deals with membrane-bound Heat shock protein 70 (Hsp70) on human tumor cells (human) (UniProt P0DMV8). As to the kind of experiment: flow cytometry, single cell suspension of in vivo-grown MIA PaCa-2 human pancreas tumor.
The target is the same in data set [9]. Kind of data set: flow cytometry, single cell suspension of in vivo-grown FaDu human head & neck tumor.
For data set [10] the target is unchanged. Kind of data set: flow cytometry, single cell suspension of in vivo-grown T-47D human mammary tumor.
The target is the same in data set [11]. As to the kind of experiment: flow cytometry, single cell suspension of in vivo-grown HeLa human cervix tumor.
Data set [12] shares this target. Kind of data set: flow cytometry, single cell suspension of in vivo-grown HCT-116 human colon tumor.
Data set [13] has as its target membrane-bound Heat shock protein 70 (Hsp70) on murine tumor cells (mouse) (UniProt Q61696). Kind of data set: flow cytometry, single cell suspension of in vivo-grown 4T1 murine mammary tumor.
Data set [14] deals with membrane-bound Heat shock protein 70 (Hsp70) on human tumor cells (human) (UniProt P0DMV8). Kind of data set: flow cytometry, single cell suspension of in vivo-grown CX-2 human colon tumor.
The target is the same in data set [15]. As to the kind of experiment: flow cytometry, single cell suspension of in vivo-grown MCF-7 human mammary tumor.
The target is the same in data set [16]. As to the kind of experiment: flow cytometry, single cell suspension of in vivo-grown MDA-MB231 human mammary tumor.
The target of data set [17] is membrane-bound Heat shock protein 70 (Hsp70) on murine tumor cells (mouse) (UniProt Q61696). As to the kind of experiment: flow cytometry, single cell suspension of CAC murine colon tumor.
For data set [18], the target named is membrane-bound Heat shock protein 70 (Hsp70) on human tumor cells (human) (UniProt P0DMV8). As to the kind of experiment: flow cytometry, single cell suspension of in vivo-grown COLO357 human pancreas tumor.
Data set [19] has the same target. As to the kind of experiment: flow cytometry, single cell suspension of in vivo-grown Panc-1 human pancreas tumor.
For data set [20] the target is unchanged. As to the kind of experiment: flow cytometry, single cell suspension of in vivo-grown H-1339 human lung tumor.

membrane-bound Heat shock protein 70 (Hsp70) on human tumor cells (human), sequence (P0DMV8 2-641): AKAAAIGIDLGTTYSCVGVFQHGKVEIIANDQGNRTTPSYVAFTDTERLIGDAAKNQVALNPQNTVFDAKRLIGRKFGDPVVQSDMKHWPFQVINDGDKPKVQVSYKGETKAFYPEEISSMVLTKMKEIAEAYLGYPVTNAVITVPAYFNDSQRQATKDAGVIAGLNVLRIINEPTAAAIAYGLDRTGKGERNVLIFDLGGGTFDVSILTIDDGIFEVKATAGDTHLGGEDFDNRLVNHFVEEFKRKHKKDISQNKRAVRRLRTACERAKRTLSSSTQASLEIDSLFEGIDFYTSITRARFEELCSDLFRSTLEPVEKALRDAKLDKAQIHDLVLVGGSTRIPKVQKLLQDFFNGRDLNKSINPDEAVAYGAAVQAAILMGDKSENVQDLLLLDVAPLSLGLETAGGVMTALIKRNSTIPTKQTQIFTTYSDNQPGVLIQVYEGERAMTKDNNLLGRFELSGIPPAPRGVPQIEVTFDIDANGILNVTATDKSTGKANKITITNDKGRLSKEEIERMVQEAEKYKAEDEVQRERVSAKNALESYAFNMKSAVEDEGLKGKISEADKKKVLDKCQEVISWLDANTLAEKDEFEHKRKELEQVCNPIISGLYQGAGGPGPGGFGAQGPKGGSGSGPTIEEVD
membrane-bound Heat shock protein 70 (Hsp70) on murine tumor cells (mouse), sequence (Q61696 2-641): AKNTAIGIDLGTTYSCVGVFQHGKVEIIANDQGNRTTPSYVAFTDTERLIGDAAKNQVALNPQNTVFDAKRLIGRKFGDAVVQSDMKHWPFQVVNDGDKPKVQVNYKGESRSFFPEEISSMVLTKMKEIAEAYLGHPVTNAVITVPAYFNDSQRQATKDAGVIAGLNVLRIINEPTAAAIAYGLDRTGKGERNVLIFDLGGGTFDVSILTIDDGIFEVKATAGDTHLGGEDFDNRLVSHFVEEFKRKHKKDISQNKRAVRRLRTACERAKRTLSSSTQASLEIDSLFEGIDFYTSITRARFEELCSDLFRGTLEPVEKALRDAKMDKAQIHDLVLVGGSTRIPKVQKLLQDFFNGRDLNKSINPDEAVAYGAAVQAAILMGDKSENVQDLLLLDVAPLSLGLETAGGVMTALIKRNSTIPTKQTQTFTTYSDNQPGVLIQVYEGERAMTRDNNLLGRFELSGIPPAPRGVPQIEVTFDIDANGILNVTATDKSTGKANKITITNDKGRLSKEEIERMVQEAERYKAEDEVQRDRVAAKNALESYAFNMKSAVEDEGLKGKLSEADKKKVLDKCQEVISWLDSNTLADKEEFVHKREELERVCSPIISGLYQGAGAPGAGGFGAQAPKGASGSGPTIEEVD

On to `CC(C)C[C@H](NC(=O)[C@H](CC(C)C)NC(=O)[C@H](CC(N)=O)NC(=O)[C@H](CC(N)=O)NC(=O)[C@H](CC(=O)O)NC(=O)[C@H](CCCCN)NC(=O)[C@@H](N)[C@@H](C)O)C(=O)NCC(=O)N[C@@H](CCCNC(=N)N)C(=O)N[C@@H](Cc1ccccc1)C(=O)N[C@@H](CCC(=O)O)C(=O)N[C@@H](CC(C)C)C(=O)N[C@@H](CO)C(=O)NCC(=O)O` [TPP, TKDNNLLGRFELSG], for which, in [1] (BALB/c mice, i.v. 500 to 1050 μg), the “loss of weight or change in mobility” value is given as “Nor did any animal exhibit any loss of weight or change in mobility”. Besides, the “gross monitoring for toxic reactions (skin ulcerations, toxic death)” value in [1] (BALB/c mice, i.v. 500 to 1050 μg (25 to 50 μg/g)) is given as “did not show any toxic reactions”. Besides, the “histological examination of heart, liver, spleen, lung and kidney” value in data set [1] (day 5 after injection) is on record as “no pathological changes”. Further, the “side effects in tumor-bearing mice” value in data set [1] (up to 500 μg per mouse) was “did not exert any side effects”. The route of clearance entry in data set [2] is recorded as “cleared from the body by renal excretion”.
As for “NGLTLKNDFSRLEG (scrambled control peptide)”, in data set [3], the “internalization into tumor cells” value was “not internalized”.
Regarding “cmHsp70.1 monoclonal antibody (FITC-conjugated for flow cytometry)”, the % membrane-positive cells in data set [4] worked out at 68.1%; in data set [5] it was 50%; in data set [6] it was 76.3%; in data set [7] it was 55.5%; in data set [8], 58.5%; in data set [9], 59%. In addition, the % membrane-positive cells in data set [10] is 48%; in data set [11], 55%; in data set [12], 63.3%; in [13] it was 56.3%; in data set [14] it was 56.6%; in data set [15], 58%. Further, the % membrane-positive cells in data set [16] is 63.3%; in data set [17], 51.2%; in [18], 57.8%; in data set [19], 46%; in [20], 60%.
